# Source: article PMC10741561
# Tests used:
# [1] = target: Phos-Sx4-GST (C-terminally GST-tagged Sx4 cytosolic domain harbouring two mutations Y115E and Y251E) (UniProt P70452); experiment: ITC; MicroCal VP-ITC; syntaxins (WT-Sx4 298 µM, Phos-Sx4 308.25 µM) titrated with SNAP23 (64 µM); nonlinear least squares fit
# [2] = target: WT-Sx4-GST (C-terminally GST-tagged Syntaxin 4 cytosolic domain) (UniProt P70452); experiment: as above
# [3] = target: m4 + m5 (ternary SNARE complex with His-SNAP23 and GST-VAMP2); experiment: in vitro SNARE complex assembly assay (SDS-PAGE, anti-Sx4 immunoblot, ImageJ quantification); conditions: 5 µM Sx4-GST variant with equimolar GST-VAMP2 and His-SNAP23, 4 °C, 20 min; parent: est. 1.0; read off a plot
Kd [1] [µM],Kd [2] [µM],ratio to parent [3],Substance
1.22,5.6,–,His-SNAP23 (N-terminally His-tagged SNAP23) (from UniProt O09044 1-210) (natural protein)
–,–,1.5,WT-Sx4-GST (C-terminally GST-tagged Syntaxin 4 cytosolic domain) (from UniProt P70452) L173A; E174A
